Assays:
[1] = target: streptavidin homotetramer (UniProt P22629); test: native MS; nanoelectrospray, 200 mM ammonium acetate, or charge-reduced in 160 mM ammonium acetate with 40 mM TEAA or EDDA; 5–10 μM protein complex; cyclic IMS (cIMS) and Synapt G2; TRAP with 14 equivalents of trp
[2] = target: alcohol dehydrogenase tetramer (from saccharomyces cerevisiae) (saccharomyces cerevisiae) (UniProt P00330); test: as above
[3] = target: αβγHis heterotrimer of His-tagged toyocamycin nitrile hydratase (TNH); test: as above
[4] = target: T1, C-reactive protein pentamer, P02741; test: as above; conditions: remark: other sources report otherwise
T1 chain: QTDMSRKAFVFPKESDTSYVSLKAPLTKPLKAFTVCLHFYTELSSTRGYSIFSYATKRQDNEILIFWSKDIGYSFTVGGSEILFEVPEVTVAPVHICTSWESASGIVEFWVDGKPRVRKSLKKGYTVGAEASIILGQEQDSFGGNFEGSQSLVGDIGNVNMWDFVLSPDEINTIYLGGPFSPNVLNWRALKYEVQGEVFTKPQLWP

native MS = target: the molecule itself; test: native MS
[5] = target: the molecule itself; test: native MS; nanoelectrospray, 200 mM ammonium acetate, or charge-reduced in 160 mM ammonium acetate with 40 mM TEAA or EDDA; 5–10 μM protein complex; cyclic IMS (cIMS) and Synapt G2; TRAP with 14 equivalents of trp

With “streptavidin homotetramer (from UniProt P22629 25-183) (natural protein)” the stoichiometry N [1] was 4.

“alcohol dehydrogenase tetramer (from saccharomyces cerevisiae) (from UniProt P00330 1-348) (enzyme)” showed a stoichiometry N [2] of 4.

Molecule “αβγHis heterotrimer of His-tagged toyocamycin nitrile hydratase (TNH) (complex)” has a stoichiometry N [3] of 2.

B1: C-reactive protein pentamer, P02741 19-224 (natural protein)
chain: QTDMSRKAFVFPKESDTSYVSLKAPLTKPLKAFTVCLHFYTELSSTRGYSIFSYATKRQDNEILIFWSKDIGYSFTVGGSEILFEVPEVTVAPVHICTSWESASGIVEFWVDGKPRVRKSLKKGYTVGAEASIILGQEQDSFGGNFEGSQSLVGDIGNVNMWDFVLSPDEINTIYLGGPFSPNVLNWRALKYEVQGEVFTKPQLWP
With B1 the stoichiometry N [4] was 5.

B2: cholera toxin B homopentamer (natural protein)
chain: TPQNITDLCAEYHNTQIYTLNDKIFSYTESLAGKREMAIITFKNGAIFQVEVPGSQHIDSQKKAIERMKDTLRIAYLTEAKVEKLCVWNNKTPHAIAAISMAN
notes: also called 58 kDa cholera toxin B homopentamer
For B2, the “stoichiometry N” value (native MS) was 5.

B3: trp RNA binding attenuation protein (TRAP) homo-11mer (natural protein, UniProt Q9X6J6 1-74, looked up)
chain: MYTNSDFVVIKALEDGVNVIGLTRGADTRFHHSEKLDKGEVLIAQFTEHTSAIKVRGKAYIQTRHGVIESEGKK
notes: 91 kDa homo-11mer; it could be B. subtilis; also called holoTRAP; source: obtained from the Foster group (The Ohio State University) and the Gollnick group (State University of NY, Buffalo); copies: 11
With B3 the “stoichiometry N” value [5] was 11.

B4: phosphorylase B dimer from rabbit muscle (enzyme, UniProt P00489 1-843, looked up)
chain: MSRPLSDQEKRKQISVRGLAGVENVTELKKNFNRHLHFTLVKDRNVATPRDYYFALAHTVRDHLVGRWIRTQQHYYEKDPKRIYYLSLEFYMGRTLQNTMVNLALENACDEATYQLGLDMEELEEIEEDAGLGNGGLGRLAACFLDSMATLGLAAYGYGIRYEFGIFNQKICGGWQMEEADDWLRYGNPWEKARPEFTLPVHFYGRVEHTSQGAKWVDTQVVLAMPYDTPVPGYRNNVVNTMRLWSAKAPNDFNLKDFNVGGYIQAVLDRNLAENISRVLYPNDNFFEGKELRLKQEYFVVAATLQDIIRRFKSSKFGCRDPVRTNFDAFPDKVAIQLNDTHPSLAIPELMRVLVDLERLDWDKAWEVTVKTCAYTNHTVLPEALERWPVHLLETLLPRHLQIIYEINQRFLNRVAAAFPGDVDRLRRMSLVEEGAVKRINMAHLCIAGSHAVNGVARIHSEILKKTIFKDFYELEPHKFQNKTNGITPRRWLVLCNPGLAEIIAERIGEEYISDLDQLRKLLSYVDDEAFIRDVAKVKQENKLKFAAYLEREYKVHINPNSLFDVQVKRIHEYKRQLLNCLHVITLYNRIKKEPNKFVVPRTVMIGGKAAPGYHMAKMIIKLITAIGDVVNHDPVVGDRLRVIFLENYRVSLAEKVIPAADLSEQISTAGTEASGTGNMKFMLNGALTIGTMDGANVEMAEEAGEENFFIFGMRVEDVDRLDQRGYNAQEYYDRIPELRQIIEQLSSGFFSPKQPDLFKDIVNMLMHHDRFKVFADYEEYVKCQERVSALYKNPREWTRMVIRNIATSGKFSSDRTIAQYAREIWGVEPSRQRLPAPDEKIP
notes: glycogen phosphorylase b from rabbit muscle; 195 kDa dimer; also called PHB; source: from rabbit muscle, bought: Sigma Aldrich (lyophilized powder)
In the case of B4, the “stoichiometry N” value [5] is reported as 2.

— paper PMC8574189, “Surface-induced dissociation of protein complexes on a cyclic ion mobility spectrometer†” (The Analyst, 2021)
